Measured values published in US20240360223A1 (DRAGONFLY THERAPEUTICS, published 2024).
Positions count from the first letter of the chain named. Read-outs that look alike come from different tables or passages of the source. Each block holds one binder with its values, some of them ahead of it.

Columns and labels:
[1] = target: T1, human BAFF-R expressed on cells (human, UniProt Q96RJ3 1-184); test: flow cytometry, SUDHL-6 cells
T1 construct: Cell surface BAFF-R, endogenous on B cell lines and primary B cells or overexpressed on isogenic CHO cells; also called hBAFF-R; hBAFF-R-CHO

[2] = target: T1, human BAFF-R expressed on cells; test: flow cytometry, BJAB cells
[3] = target: T1, human BAFF-R expressed on cells; test: flow cytometry, Raji cells
[4] = target: T1, human BAFF-R expressed on cells; test: flow cytometry, Rs4;11 cells
[5] = target: T1, human BAFF-R expressed on cells; test: flow cytometry, Jeko-1 cells
[6] = target: T1, human BAFF-R expressed on cells; test: flow cytometry, human BAFF-R+ isogenic CHO
Text: Isogenic cell lines overexpressing human and cynomolgus BAFF-R were developed from CHO cells.

[7] = target: T1, human BAFF-R expressed on cells; test: flow cytometry, CHO-hBAFF-R cells
[8] = target: T1, human BAFF-R expressed on cells; test: flow cytometry, RL cells
[9] = target: T1, human BAFF-R expressed on cells; test: flow cytometry, human BAFF-R CHO cells
Text: Isogenic cell lines overexpressing human and cynomolgus BAFF-R on the backbone of CHO cell line were designed.

[10] = target: T2, human NKG2D expressed on cells (human, UniProt P26718 1-216); test: flow cytometry on KHYG-1 cells (no CD16), MFI
T2 construct: whole, on cells; also called NKG2D on KHYG-1 cells; NKG2D-positive NK cells and CD8+ T cells
T2 sequence (looked up): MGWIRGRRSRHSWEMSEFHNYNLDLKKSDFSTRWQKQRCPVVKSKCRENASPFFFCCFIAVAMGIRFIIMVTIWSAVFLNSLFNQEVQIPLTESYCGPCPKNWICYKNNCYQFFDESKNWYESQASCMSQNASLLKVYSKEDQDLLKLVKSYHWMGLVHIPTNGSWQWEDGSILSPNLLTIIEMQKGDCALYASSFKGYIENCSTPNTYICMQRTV

[11] = target: T1, human BAFF-R expressed on cells; test: blocking of BAFF-biotin on hBAFF-R CHO cells, flow cytometry
Procedure: Briefly, CHO cells expressing human BAFF-R were harvested, washed in cold FACS buffer, and seeded at a density of 100,000 cells per well. Test articles were diluted in FACS buffer, and 50 μL of diluted multispecific binding protein or mAb was added to cells, incubated on ice for 60 minutes, then washed with FACS buffer. […] Cells were incubated with 100 μL of 1:200 streptavidin-PE diluted in FACS buffer and incubated on ice for 30 minutes then washed with FACS buffer. Cells were then incubated in 100 μL of 1:1,000 dilution of live/dead dye in PBS for 15 minutes, then washed with FACS buffer, and fixed. After incubation, cells were washed with FACS buffer and resuspended in FACS buffer for analysis with flow cytometry. Median fluorescent intensity (MFI) of each sample and the secondary-only control was calculated. […] Data were fit to a four-parameter non-linear regression curve using GraphPad Prism.

[12] = target: T1, human BAFF-R expressed on cells; test: blocking of BAFF-biotin on hBAFF-R CHO cells
[13] = target: T1, human BAFF-R expressed on cells; test: flow cytometry, human BAFF-R CHO cells; remark: listed apart in the source
[14] = target: T1, human BAFF-R expressed on cells; test: flow cytometry, human BAFF-R CHO cells; remark: listed apart in the source
[15] = target: T1, human BAFF-R expressed on cells; test: cell-based or functional assay
[16] = target: T1, human BAFF-R expressed on cells; test: flow cytometry, BAFF-R-CHO cells
[17] = target: T3, cynomolgus monkey BAFF-R expressed on cells (cynomolgus monkey); test: flow cytometry, cyno BAFF-R CHO cells
T3 construct: whole, on cells; also called cBAFF-R; cynoBAFF-R

[18] = target: T3, cynomolgus monkey BAFF-R expressed on …; test: flow cytometry, cyno BAFF-R CHO cells; remark: listed apart in the source
[19] = target: T1, human BAFF-R expressed on cells; test: flow cytometry, BAFF-R CHO cells; isogenic CHO cells; human and cynomolgus not told apart
[20] = target: T1, human BAFF-R expressed on cells; test: flow cytometry, RAJI cells
Procedure: The BAFF-R positive human B lymphoblastoid RAJI cell line was used to assess TriNKET binding to cell surface BAFF-R. Certain BAFF-R TriNKETs in the 2-Fab and F3′ formats, as described in the “exemplary multispecific binding proteins” subsection above, were diluted and incubated with Raji cells. Binding patterns of TriNKETs and parental monoclonal antibodies were detected using a fluorophore conjugated anti-human IgG secondary antibody. The cells were then incubated with a fluorophore conjugated anti-human IgG secondary antibody and were analyzed by flow cytometry. The mean fluorescence intensity (MFI) values were normalized to secondary antibody only controls to obtain fold over background (FOB) values.

[21] = target: T1, human BAFF-R expressed on cells; test: flow cytometry blocking assay on hBAFFR-CHO cells; blocked ligand: 20 nM BAFF-biotin
[22] = target: T1, human BAFF-R expressed on cells; test: flow cytometry on hBAFFR-CHO cells
[23] = target: T3, cynomolgus monkey BAFF-R expressed on …; test: flow cytometry on cBAFFR-CHO cells
[24] = target: T1, human BAFF-R expressed on cells; test: flow cytometry blocking assay on hBAFFR-CHO cells; blocked ligand: 20 nM BAFF-biotin; remark: listed apart in the source
[25] = target: T1, human BAFF-R expressed on cells; test: blocking of BAFF-biotin on BAFF-R CHO cells
[26] = target: T1, human BAFF-R expressed on cells; test: flow cytometry blocking assay on hBAFFR-CHO cells; blocked ligand: 20 nM BAFF-biotin; remark: listed apart in the source

EC50 [1]: 0.19 nM | Max FOB [1]: 13 fold over background | EC50 [2]: 0.18 nM | Max FOB [2]: 12 fold over background | EC50 [3]: 0.1 nM | EC50 [4]: 0.06 nM | Max FOB [4]: 3 fold over background | EC50 [5]: 0.07 nM | Max FOB [5]: 5 fold over background | EC50 [6]: 0.39 nM | Max FOB [6]: 123 fold over background | EC50 [7]: 0.39 nM | Max FOB [7]: 123 fold over background | EC50 [8]: 0.14 nM | Max FOB [8]: 6 fold over background | EC50 [9]: 0.4 nM | Max FOB [9]: 57 fold over background | binding result [10]: no binding (tested: about 700 nM)
B1: Parental mAb (AB1753) (antibody, V domains shown)
VH: EVQLVQSGGGVVQPGRSLRLSCAASGFTFSSYGMHWVRQAPGKGLEWVAVIWYDASNKYYGDSVKGRFTISRDNSKNTLYLQMNSLRDEDTAVYYCARRFTHLRGQYIEDYGLDVWGQGTTVTVSS
VL: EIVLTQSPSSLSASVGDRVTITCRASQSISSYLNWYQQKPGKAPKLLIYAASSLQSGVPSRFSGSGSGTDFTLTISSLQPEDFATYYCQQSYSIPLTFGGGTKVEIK
notes: also called parental BAFF-R specific antibody

IC50 [11]: 488 nM | IC50 [12]: > 1000 nM | EC50 [13]: > 10 nM | EC50 [14]: 6.8 nM | KHYG-A-CD16Av mediated Cytolysis of Ramos cells EC50 [15]: 0.64 nM | EC50 [16]: > 10 nM | EC50 [17]: 7.11 nM | EC50 [18]: > 15 nM | EC50 [19]: ~10 nM
B2: AB0369 (bispecific antibody, V domains shown)
VH: B1 VH with G44C, A55G, H102M, Q106L, Y107I, L113M
VL: not shown
notes: also called AB0369-001

EC50 [20]: 0.003 nM | IC50 [11]: 0.5 nM | IC50 (read off the curve) [21]: ~0.4 nM | EC50 (read off the curve) [22]: ~0.5 nM | EC50 (read off the curve) [23]: ~0.4 nM | IC50 (read off the curve) [24]: ~0.4 nM | IC50 [25]: 0.38 nM | IC50 (read off the curve) [26]: ~0.8 nM
B3: Ianalumab-mAb (antibody, V domains shown)
VH: QVQLQQSGPGLVKPSQTLSLTCAISGDSVSSNSAAWGWIRQSPGRGLEWLGRIYYRSKWYNSYAVSVKSRITINPDTSKNQFSLQLNSVTPEDTAVYYCARYQWVPKIGVFDSWGQGTLVTVSS
VL: DIVLTQSPATLSLSPGERATLSCRASQFILPEYLSWYQQKPGQAPRLLIYGSSSRATGVPARFSGSGSGTDFTLTISSLEPEDFAVYYCQQFYSSPLTFGQGTKVEIK
notes: Parental control mAb; also called Ianalumab-based tool-mAb; Tool-mAb
